Patent publication US20240209076A1 (KODIAK SCIENCES, published 2024)

These binders were tested against recombinant human IL-6 (human, UniProt P05231 30-212) (assay: SPR, IL-6 on CM5 chip, Fab lysate, 25 C).
Experimental: Three ranges of antigen density (100-150 RU, 300-400 RU, 400-600 RU) were obtained by using variable flow times for each chip channel, later blocked with ethanolamine. Supernatants of the 96-well filtered culture lysates were injected at 50 μL/min for 120 seconds. Fitting of dissociation curves (300 seconds) to single exponential decay curve was used for the determination of dissociation rates (koff). Chip surfaces were regenerated with 10 mM Glycine pH 1.7 solution injected at 50 μL/min during 60 seconds after every cycle of sample binding and dissociation.

Chain of recombinant human IL-6 (P05231 30-212 limits assumed): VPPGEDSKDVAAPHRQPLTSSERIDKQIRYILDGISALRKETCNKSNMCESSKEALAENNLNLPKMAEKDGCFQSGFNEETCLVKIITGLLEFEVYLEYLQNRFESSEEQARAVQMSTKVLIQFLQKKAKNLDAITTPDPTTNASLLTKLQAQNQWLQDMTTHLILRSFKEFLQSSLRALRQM

Binder | koff [s⁻¹]
anti-IL-6 Fab, parental molecule (Fab, V domains shown, Fab expressed in E. coli TG1, tested as filtered lysate; also called wild-type; parent molecule) VH: EVQLVESGGGLVQPGGSLRLSCAASGFTFSPFAMSWVRQAPGKGLEWVAKISPGGSWTYYSDTVTGRFTFSLDTSKSTAYLQMNSLRAEDTAVYYCARQLWGYYALDIWGQGTLVTVSS VL: DIQLTQSPSSLSASVGDRVTITCSASISVSYMYWYQQKPGKAPKLLIYDMSNLASGVPSRFSGSGSGTDFTLTISSLQPEDFATYYCMQWSGYPYTFGQGTKVEIK | 0.00494
anti-IL-6 Fab, heavy chain F27V (Fab, V domains shown, see m39) VH: EVQLVESGGGLVQPGGSLRLSCAASGVTFSPFAMSWVRQAPGKGLEWVAKISPGGSWTYYSDTVTGRFTFSLDTSKSTAYLQMNSLRAEDTAVYYCARQLWGYYALDIWGQGTLVTVSS VL: DIQLTQSPSSLSASVGDRVTITCSASISVSYMYWYQQKPGKAPKLLIYDMSNLASGVPSRFSGSGSGTDFTLTISSLQPEDFATYYCMQWSGYPYTFGQGTKVEIK | 0.00405
anti-IL-6 Fab, heavy chain G66D (Fab, V domains shown, see m39) VH: EVQLVESGGGLVQPGGSLRLSCAASGFTFSPFAMSWVRQAPGKGLEWVAKISPGGSWTYYSDTVTDRFTFSLDTSKSTAYLQMNSLRAEDTAVYYCARQLWGYYALDIWGQGTLVTVSS VL: DIQLTQSPSSLSASVGDRVTITCSASISVSYMYWYQQKPGKAPKLLIYDMSNLASGVPSRFSGSGSGTDFTLTISSLQPEDFATYYCMQWSGYPYTFGQGTKVEIK | 0.00607
anti-IL-6 Fab, heavy chain F32G (Fab, V domains shown, see m39) VH: EVQLVESGGGLVQPGGSLRLSCAASGFTFSPGAMSWVRQAPGKGLEWVAKISPGGSWTYYSDTVTGRFTFSLDTSKSTAYLQMNSLRAEDTAVYYCARQLWGYYALDIWGQGTLVTVSS VL: DIQLTQSPSSLSASVGDRVTITCSASISVSYMYWYQQKPGKAPKLLIYDMSNLASGVPSRFSGSGSGTDFTLTISSLQPEDFATYYCMQWSGYPYTFGQGTKVEIK | 0.00525
anti-IL-6 Fab, heavy chain F27G (Fab, V domains shown, see m39) VH: EVQLVESGGGLVQPGGSLRLSCAASGGTFSPFAMSWVRQAPGKGLEWVAKISPGGSWTYYSDTVTGRFTFSLDTSKSTAYLQMNSLRAEDTAVYYCARQLWGYYALDIWGQGTLVTVSS VL: DIQLTQSPSSLSASVGDRVTITCSASISVSYMYWYQQKPGKAPKLLIYDMSNLASGVPSRFSGSGSGTDFTLTISSLQPEDFATYYCMQWSGYPYTFGQGTKVEIK | 0.00401
anti-IL-6 Fab, heavy chain G66E (Fab, V domains shown, see m39) VH: EVQLVESGGGLVQPGGSLRLSCAASGFTFSPFAMSWVRQAPGKGLEWVAKISPGGSWTYYSDTVTERFTFSLDTSKSTAYLQMNSLRAEDTAVYYCARQLWGYYALDIWGQGTLVTVSS VL: DIQLTQSPSSLSASVGDRVTITCSASISVSYMYWYQQKPGKAPKLLIYDMSNLASGVPSRFSGSGSGTDFTLTISSLQPEDFATYYCMQWSGYPYTFGQGTKVEIK | 0.00505
anti-IL-6 Fab, heavy chain F27R (Fab, V domains shown, see m39) VH: EVQLVESGGGLVQPGGSLRLSCAASGRTFSPFAMSWVRQAPGKGLEWVAKISPGGSWTYYSDTVTGRFTFSLDTSKSTAYLQMNSLRAEDTAVYYCARQLWGYYALDIWGQGTLVTVSS VL: DIQLTQSPSSLSASVGDRVTITCSASISVSYMYWYQQKPGKAPKLLIYDMSNLASGVPSRFSGSGSGTDFTLTISSLQPEDFATYYCMQWSGYPYTFGQGTKVEIK | 0.00394
anti-IL-6 Fab, heavy chain F32V (Fab, V domains shown, see m39) VH: EVQLVESGGGLVQPGGSLRLSCAASGFTFSPVAMSWVRQAPGKGLEWVAKISPGGSWTYYSDTVTGRFTFSLDTSKSTAYLQMNSLRAEDTAVYYCARQLWGYYALDIWGQGTLVTVSS VL: DIQLTQSPSSLSASVGDRVTITCSASISVSYMYWYQQKPGKAPKLLIYDMSNLASGVPSRFSGSGSGTDFTLTISSLQPEDFATYYCMQWSGYPYTFGQGTKVEIK | 0.00541
anti-IL-6 Fab, heavy chain I51R (Fab, V domains shown, see m39) VH: EVQLVESGGGLVQPGGSLRLSCAASGFTFSPFAMSWVRQAPGKGLEWVAKRSPGGSWTYYSDTVTGRFTFSLDTSKSTAYLQMNSLRAEDTAVYYCARQLWGYYALDIWGQGTLVTVSS VL: DIQLTQSPSSLSASVGDRVTITCSASISVSYMYWYQQKPGKAPKLLIYDMSNLASGVPSRFSGSGSGTDFTLTISSLQPEDFATYYCMQWSGYPYTFGQGTKVEIK | 0.00315
anti-IL-6 Fab, heavy chain F29H (Fab, V domains shown, see m39) VH: EVQLVESGGGLVQPGGSLRLSCAASGFTHSPFAMSWVRQAPGKGLEWVAKISPGGSWTYYSDTVTGRFTFSLDTSKSTAYLQMNSLRAEDTAVYYCARQLWGYYALDIWGQGTLVTVSS VL: DIQLTQSPSSLSASVGDRVTITCSASISVSYMYWYQQKPGKAPKLLIYDMSNLASGVPSRFSGSGSGTDFTLTISSLQPEDFATYYCMQWSGYPYTFGQGTKVEIK | 0.00524
anti-IL-6 Fab, heavy chain F27S (Fab, V domains shown, see m39) VH: EVQLVESGGGLVQPGGSLRLSCAASGSTFSPFAMSWVRQAPGKGLEWVAKISPGGSWTYYSDTVTGRFTFSLDTSKSTAYLQMNSLRAEDTAVYYCARQLWGYYALDIWGQGTLVTVSS VL: DIQLTQSPSSLSASVGDRVTITCSASISVSYMYWYQQKPGKAPKLLIYDMSNLASGVPSRFSGSGSGTDFTLTISSLQPEDFATYYCMQWSGYPYTFGQGTKVEIK | 0.00393
anti-IL-6 Fab, heavy chain A49S (Fab, V domains shown, see m39) VH: EVQLVESGGGLVQPGGSLRLSCAASGFTFSPFAMSWVRQAPGKGLEWVSKISPGGSWTYYSDTVTGRFTFSLDTSKSTAYLQMNSLRAEDTAVYYCARQLWGYYALDIWGQGTLVTVSS VL: DIQLTQSPSSLSASVGDRVTITCSASISVSYMYWYQQKPGKAPKLLIYDMSNLASGVPSRFSGSGSGTDFTLTISSLQPEDFATYYCMQWSGYPYTFGQGTKVEIK | 0.0054

The next lines start with the values.

koff [s⁻¹] | Binder
0.00511 | anti-IL-6 Fab, heavy chain F29Y (Fab, V domains shown, see m39) VH: EVQLVESGGGLVQPGGSLRLSCAASGFTYSPFAMSWVRQAPGKGLEWVAKISPGGSWTYYSDTVTGRFTFSLDTSKSTAYLQMNSLRAEDTAVYYCARQLWGYYALDIWGQGTLVTVSS VL: DIQLTQSPSSLSASVGDRVTITCSASISVSYMYWYQQKPGKAPKLLIYDMSNLASGVPSRFSGSGSGTDFTLTISSLQPEDFATYYCMQWSGYPYTFGQGTKVEIK
0.00381 | anti-IL-6 Fab, heavy chain G26R (Fab, V domains shown, see m39) VH: EVQLVESGGGLVQPGGSLRLSCAASRFTFSPFAMSWVRQAPGKGLEWVAKISPGGSWTYYSDTVTGRFTFSLDTSKSTAYLQMNSLRAEDTAVYYCARQLWGYYALDIWGQGTLVTVSS VL: DIQLTQSPSSLSASVGDRVTITCSASISVSYMYWYQQKPGKAPKLLIYDMSNLASGVPSRFSGSGSGTDFTLTISSLQPEDFATYYCMQWSGYPYTFGQGTKVEIK
0.00575 | anti-IL-6 Fab, heavy chain A49T (Fab, V domains shown, see m39) VH: EVQLVESGGGLVQPGGSLRLSCAASGFTFSPFAMSWVRQAPGKGLEWVTKISPGGSWTYYSDTVTGRFTFSLDTSKSTAYLQMNSLRAEDTAVYYCARQLWGYYALDIWGQGTLVTVSS VL: DIQLTQSPSSLSASVGDRVTITCSASISVSYMYWYQQKPGKAPKLLIYDMSNLASGVPSRFSGSGSGTDFTLTISSLQPEDFATYYCMQWSGYPYTFGQGTKVEIK
0.00434 | anti-IL-6 Fab, heavy chain D62Q (Fab, V domains shown, see m39) VH: EVQLVESGGGLVQPGGSLRLSCAASGFTFSPFAMSWVRQAPGKGLEWVAKISPGGSWTYYSQTVTGRFTFSLDTSKSTAYLQMNSLRAEDTAVYYCARQLWGYYALDIWGQGTLVTVSS VL: DIQLTQSPSSLSASVGDRVTITCSASISVSYMYWYQQKPGKAPKLLIYDMSNLASGVPSRFSGSGSGTDFTLTISSLQPEDFATYYCMQWSGYPYTFGQGTKVEIK
0.00375 | anti-IL-6 Fab, heavy chain G26S (Fab, V domains shown, see m39) VH: EVQLVESGGGLVQPGGSLRLSCAASSFTFSPFAMSWVRQAPGKGLEWVAKISPGGSWTYYSDTVTGRFTFSLDTSKSTAYLQMNSLRAEDTAVYYCARQLWGYYALDIWGQGTLVTVSS VL: DIQLTQSPSSLSASVGDRVTITCSASISVSYMYWYQQKPGKAPKLLIYDMSNLASGVPSRFSGSGSGTDFTLTISSLQPEDFATYYCMQWSGYPYTFGQGTKVEIK
0.00418 | anti-IL-6 Fab, heavy chain F27P (Fab, V domains shown, see m39) VH: EVQLVESGGGLVQPGGSLRLSCAASGPTFSPFAMSWVRQAPGKGLEWVAKISPGGSWTYYSDTVTGRFTFSLDTSKSTAYLQMNSLRAEDTAVYYCARQLWGYYALDIWGQGTLVTVSS VL: DIQLTQSPSSLSASVGDRVTITCSASISVSYMYWYQQKPGKAPKLLIYDMSNLASGVPSRFSGSGSGTDFTLTISSLQPEDFATYYCMQWSGYPYTFGQGTKVEIK

Each binder was assayed against human IL-6 (human, UniProt P05231 30-212) (assay: SPR (Biacore), supernatant antibody on Protein A chip, IL-6 flowed, 37 C).
Experimental: Antibodies were captured on a Protein A chip (GE) by injecting 1:20 cell supernatant dilutions at 10 μL/min for 60 seconds. […] The sensor chip was regenerated by a 60 seconds injection of 10 mM Glycine pH 1.7 at the flow rate of 50 μL/min. […] For this setup, 1 μg/mL of purified antibody was injected over a Protein A chip at 10 μL/min for 25 seconds. […] The sensor chip was regenerated by a 60 seconds injection of 10 mM Glycine pH 1.7 at flow rate of 50 μL/min. Data analysis for supernatant and purified samples were performed using BIAevaluation software (GE). All sensorgrams were double reference subtracted and fit using a 1:1 Langmuir binding model.

Chain of human IL-6 (P05231 30-212 limits assumed): as the sequence (P05231 30-212 limits assumed) above

Kd [nM] | koff [s⁻¹] | kon [M⁻¹ s⁻¹] | Binder
0.322 | 0.000384 | 1.19e+06 | anti-IL-6 antibody, heavy chain T65W, G66D / light chain M32L, M50D, N52S, M88Q (antibody, human IgG1, V domains shown, Human IgG1) VH: EVQLVESGGGLVQPGGSLRLSCAASGFTFSPFAMSWVRQAPGKGLEWVAKISPGGSWTYYSDTVWDRFTFSLDTSKSTAYLQMNSLRAEDTAVYYCARQLWGYYALDIWGQGTLVTVSS VL: DIQLTQSPSSLSASVGDRVTITCSASISVSYLYWYQQKPGKAPKLLIYDDSSLASGVPSRFSGSGSGTDFTLTISSLQPEDFATYYCQQWSGYPYTFGQGTKVEIK
0.237 | 0.000367 | 1.55e+06 | anti-IL-6 antibody, heavy chain T65Y, G66D / light chain M32L, M50D, N52S, M88Q (antibody, human IgG1, V domains shown, Human IgG1) VH: EVQLVESGGGLVQPGGSLRLSCAASGFTFSPFAMSWVRQAPGKGLEWVAKISPGGSWTYYSDTVYDRFTFSLDTSKSTAYLQMNSLRAEDTAVYYCARQLWGYYALDIWGQGTLVTVSS VL: DIQLTQSPSSLSASVGDRVTITCSASISVSYLYWYQQKPGKAPKLLIYDDSSLASGVPSRFSGSGSGTDFTLTISSLQPEDFATYYCQQWSGYPYTFGQGTKVEIK
